Biological target: CLASPIN (UniProt Q9HAW4)
Experiment: anti-myc co-immunoprecipitation
Settings: reference: wild-type RAD9-mH; sites T313

Substance: RAD9 (from UniProt Q99638) RAD9-T313A-mH
- binding against the reference: stronger

— PMC5736350
